From CN107043422A (CHENGDU KANGHONG BIOLOGICAL TECH CO LTD, dated 2017)

T1: 大鼠血清中的补体因子D (rat serum complement factor D) (大鼠 (rat), UniProt P32038 26-263)
T1 sequence (looked up): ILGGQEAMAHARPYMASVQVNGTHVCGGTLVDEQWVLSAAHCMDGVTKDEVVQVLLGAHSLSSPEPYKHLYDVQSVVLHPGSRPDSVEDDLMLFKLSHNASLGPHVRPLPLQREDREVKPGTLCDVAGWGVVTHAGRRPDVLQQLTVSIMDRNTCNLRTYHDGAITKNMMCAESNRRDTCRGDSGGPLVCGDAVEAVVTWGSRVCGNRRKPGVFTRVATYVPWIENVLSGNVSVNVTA


Legend:
[1] = target: T2, 猪CFD (猪 (pig), UniProt P51779 27-259, limits assumed); assay: BLI (Octet QK), antibody on Protein A biosensor, CFD transfection supernatant in solution
T2 construct: Transiently expressed in DG44 cells; The culture supernatant was used unpurified in the Octet assay; also called pig CFD; 猪(GeneID:396877)

[2] = target: T1, 大鼠血清中的补体因子D (rat serum complement …); assay: cell-based or functional assay
[3] = target: T3, 人CFD蛋白 (人 (human), UniProt P00746 26-253, limits assumed); assay: BLI (Octet QK), human CFD on Ni-NTA biosensor, KH-A at 125 nM in rabbit vitreous fluid
T3 construct: also called human complement factor D

[4] = target: T2, 猪CFD; assay: BLI (Octet QK), His-tagged CFD supernatant on Ni-NTA biosensor, Fab at 10 μg/ml

T2 sequence (P51779 other isoform, or with tags, fused parts or gaps limits assumed): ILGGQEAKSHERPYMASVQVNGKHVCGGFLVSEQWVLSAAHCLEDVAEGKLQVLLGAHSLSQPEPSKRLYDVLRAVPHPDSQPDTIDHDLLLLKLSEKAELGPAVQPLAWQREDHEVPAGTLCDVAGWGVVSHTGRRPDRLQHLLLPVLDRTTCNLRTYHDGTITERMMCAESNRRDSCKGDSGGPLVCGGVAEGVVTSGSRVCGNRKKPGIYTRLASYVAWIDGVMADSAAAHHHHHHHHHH
T3 sequence (P00746 26-253 limits assumed): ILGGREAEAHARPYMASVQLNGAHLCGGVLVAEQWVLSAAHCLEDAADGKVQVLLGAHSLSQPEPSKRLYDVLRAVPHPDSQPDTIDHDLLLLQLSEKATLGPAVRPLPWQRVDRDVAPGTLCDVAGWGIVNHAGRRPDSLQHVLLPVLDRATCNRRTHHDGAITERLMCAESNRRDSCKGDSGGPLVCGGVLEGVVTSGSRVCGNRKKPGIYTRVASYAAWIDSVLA

| Binder | binding result [1] | IC50, 全长抗体抑制大鼠血清致兔红细胞溶血 (ACH50法, 补体旁路途径活性) [2] [µg/mL] | binding result [3] | binding result [4] |
| --- | --- | --- | --- | --- |
| KH-A (antibody, human IgG4 S228P, kappa, V domains shown, Full-length humanized anti-complement factor D antibody expressed in CHO-S cells; also called 抗体KH-A; 全长抗体KH-A) VH: QVQLVQSGPELKKPGASVKVSCKASGYTFTNYGMNWVRQAPGQGLEWMGWINTYTGETTYADDFKGRFVFSLDTSVSTAYLQISSLKAEDTAVYYCEREGGVNYWGQGTLVTVSS VL: DIQVTQSPSSLSASVGDRVTITCITSTDIDDDMNWYQQKPGKVPKLLISGGATLRPGVPSRFSGSGSGTDFTLTISSLQPEDVATYYCLQSDSLPYTFGQGTKLEIKR | binds | 3860 | binds |  |
| KH021 (Fab, V domains shown, Fab expressed in the E. coli periplasm; also called Fab抗体KH021) VH: QVQLVQSGPELKKPGASVKVSCKASGYTFTNYGMNWVRQAPGQGLEWMGWINTYTGETTYADDFKGRFVFSLDTSVSTAYLQISSLKAEDTAVYYCEREGGVNSWGQGTLVTVSS VL: DIQVTQSPSSLSASVGDRVTITCITSTDIDDDVNWYQQKPGKVPKLLISGGNTLRPGVPSRFSGSGSGTDFTLTISSLQPEDVATYYCMQSDSLPYTFGQGTKLEIKR |  |  |  | binds |
| KH-F (antibody, human IgG4 S228P, kappa, V domains shown, also called 全长抗体KH-F) VH: QVQLVQSGPELKKPGASVKVSCKASGYTFTNYGMNWVRQAPGQGLEWMGWINTYTGETTYADDFKGRFVFSLDTSVSTAYLQISSLKAEDTAVYYCEREGGVNSWGQGTLVTVSS VL: DIQVTQSPSSLSASVGDRVTITCITSTDIDDDVNWYQQKPGKVPKLLISGGNTLRPGVPSRFSGSGSGTDFTLTISSLQPEDVATYYCMQSDSLPYTFGQGTKLEIKR | binds | 3960 |  |  |
| KH027 (Fab, V domains shown, Fab expressed in the E. coli periplasm; also called Fab抗体KH027) VH: QVQLVQSGPELKKPGASVKVSCKASGYTFTNYGMNWVRQAPGQGLEWMGWINTYTGETTYADDFKGRFVFSLDTSVSTAYLQISSLKAEDTAVYYCEREGGVNYWGQGTLVTVSS VL: DIQVTQSPSSLSASVGDRVTITCITSTDIDDDMNWYQQKPGKVPKLLISGGATLRPGVPSRFSGSGSGTDFTLTISSLQPEDVATYYCLQSDSLPYTFGQGTKLEIKR |  |  |  | binds |
